The record followed here is paper PMC2615600.

Data set [1] has as its target T1, phi29 DNA polymerase G410C/P562C (Bacteriophage phi29, UniProt P03680 1-575, G410C;P562C).
T1 sequence: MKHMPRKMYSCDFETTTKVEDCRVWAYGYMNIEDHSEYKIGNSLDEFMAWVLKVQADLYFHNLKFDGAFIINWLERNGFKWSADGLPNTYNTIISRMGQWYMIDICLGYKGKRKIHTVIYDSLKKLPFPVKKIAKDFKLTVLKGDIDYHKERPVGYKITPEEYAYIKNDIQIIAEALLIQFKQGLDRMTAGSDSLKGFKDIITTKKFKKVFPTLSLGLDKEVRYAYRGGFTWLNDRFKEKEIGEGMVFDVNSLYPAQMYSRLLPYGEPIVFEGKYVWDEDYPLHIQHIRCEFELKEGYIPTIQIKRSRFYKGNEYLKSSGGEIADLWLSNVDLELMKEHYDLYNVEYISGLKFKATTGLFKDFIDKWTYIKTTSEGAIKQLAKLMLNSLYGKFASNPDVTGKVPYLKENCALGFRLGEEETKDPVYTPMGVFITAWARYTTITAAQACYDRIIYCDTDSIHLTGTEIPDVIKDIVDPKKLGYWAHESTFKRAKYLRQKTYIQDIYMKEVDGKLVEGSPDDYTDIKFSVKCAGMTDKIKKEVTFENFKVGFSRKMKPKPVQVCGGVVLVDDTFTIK
In words: EMSA. (Mobility shift assays separate free from complexed probe on a gel.)

The target in data set [2] is T2, phi29 DNA polymerase wild-type (Bacteriophage phi29, UniProt P03680 1-575).
T2 sequence: T1 sequence with C410G, C562P
In words: EMSA.

Residue numbers refer to the chain shown, from its start.

B1: sp1/sp1c+6 (15/21mer primer/template) (dsDNA)
DNA 1: GATCACAGTGAGTAC
DNA 2: TCTATTGTACTCACTGTGATC
Turning to B1, in data set [1], the binding signal was 3 % of wild-type (unit presumed). The binding result in data set [2] is given as “binds”.
